In publication PMC8329713, “The identification and structural analysis of potential 14-3-3 interaction sites on the bone regulator protein Schnurri-3” (Acta Crystallographica. Section F, Structural Biology …, 2021):
Non-standard residues stand in square brackets, D forms with d. No end group written: not given here. *: point of attachment. FITC = O=C1OC2(c3ccc(O)cc3Oc3cc(O)ccc32)c2ccc(NC(=S)*)cc21; pS = N[C@@H](COP(=O)(O)O)C(=O)O; Ahx = NCCCCCC(=O)O

How the values were obtained:
Experiment in all cases: fluorescence polarisation; 14-3-3 isoforms (full length) serially diluted twofold in the presence of 10 nM FITC-labelled peptide; 50 mM Tris pH 7.5, 150 mM NaCl, 5 mM MgCl2, 0.05% Tween-20 (no reducing agent listed); one-site specific binding model
Conditions in all cases: both partners purified
[1] = biological target: T1, 14-3-3τ (full length) (human, UniProt P27348 1-245)
T1 construct: 14-3-3 protein theta (tau), human, full length; Expressed from a pPRoeX-Htb vector; also called 14-3-3 isoform τ; source: E. coli NiCo21(DE3), purified (nickel column, TEV cleavage, second nickel column, SEC)
T1 sequence (looked up): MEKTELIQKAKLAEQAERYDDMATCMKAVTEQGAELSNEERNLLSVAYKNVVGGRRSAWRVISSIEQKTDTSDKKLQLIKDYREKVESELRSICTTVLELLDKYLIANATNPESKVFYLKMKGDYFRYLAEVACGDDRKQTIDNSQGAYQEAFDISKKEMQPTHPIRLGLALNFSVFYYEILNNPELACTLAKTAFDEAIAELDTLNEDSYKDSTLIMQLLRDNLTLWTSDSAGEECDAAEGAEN

[2] = biological target: T2, 14-3-3σ (full length) (human, UniProt P31947 1-248)
T2 construct: 14-3-3 protein sigma, human, full length; Expressed from a pPRoeX-Htb vector; also called 14-3-3 isoform σ; the σ isoform; source: E. coli NiCo21(DE3), purified (nickel column, TEV cleavage, second nickel column, SEC)
T2 sequence (looked up): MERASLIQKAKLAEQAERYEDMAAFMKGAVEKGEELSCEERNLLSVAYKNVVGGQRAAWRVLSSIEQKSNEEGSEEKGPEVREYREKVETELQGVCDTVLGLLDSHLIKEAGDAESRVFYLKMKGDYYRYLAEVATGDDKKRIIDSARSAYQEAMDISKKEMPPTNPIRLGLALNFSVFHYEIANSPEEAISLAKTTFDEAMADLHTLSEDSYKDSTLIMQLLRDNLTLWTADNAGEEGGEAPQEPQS

[3] = biological target: T3, 14-3-3η (full length) (human, UniProt Q04917 1-246)
T3 construct: 14-3-3 protein eta, human, full length; Expressed from a pPRoeX-Htb vector; also called 14-3-3 isoform η; source: E. coli NiCo21(DE3), purified (nickel column, TEV cleavage, second nickel column, SEC)
T3 sequence (looked up): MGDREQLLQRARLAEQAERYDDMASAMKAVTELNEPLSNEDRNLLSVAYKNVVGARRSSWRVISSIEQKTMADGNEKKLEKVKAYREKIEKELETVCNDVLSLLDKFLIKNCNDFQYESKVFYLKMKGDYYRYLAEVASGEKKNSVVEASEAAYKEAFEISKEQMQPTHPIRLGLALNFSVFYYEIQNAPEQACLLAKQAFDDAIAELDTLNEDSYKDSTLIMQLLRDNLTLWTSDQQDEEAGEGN

[4] = biological target: T4, 14-3-3ζ (full length) (human, UniProt P63104 1-245)
T4 construct: 14-3-3 protein zeta/delta, human, full length; Expressed from a pPRoeX-Htb vector; also called 14-3-3 isoform ζ; source: E. coli NiCo21(DE3), purified (nickel column, TEV cleavage, second nickel column, SEC)
T4 sequence (looked up): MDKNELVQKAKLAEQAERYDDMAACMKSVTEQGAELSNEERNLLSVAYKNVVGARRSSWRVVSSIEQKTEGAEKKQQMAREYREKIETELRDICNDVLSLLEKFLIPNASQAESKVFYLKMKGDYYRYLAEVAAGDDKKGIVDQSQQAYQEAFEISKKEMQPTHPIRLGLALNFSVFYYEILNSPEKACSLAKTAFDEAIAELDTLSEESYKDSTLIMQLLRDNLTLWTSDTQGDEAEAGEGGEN

binding result [1]: binds
Kd [2]: 26 ± 2 nM
Kd [3]: 690 ± 60 nM
binding result [4]: binds
B1: SHN3pS542 peptide, N-terminally FITC-Ahx-labelled (peptide)
peptide: {FITC-Ahx}-LLRSH[pS]MPSAAC
modifications: also: phosphoserine at 542, position not mapped
notes: Schnurri-3 (SHN3, transcription factor HIVEP3), human, 12-mer around phosphorylated Ser542; also called SHN3pS542-FITC; the FITC-labelled form; source: synthetic peptide, bought: GenScript (purity >95%)
